This note sets out measurements from PMC6104826.

This experiment addresses HA-tagged cMyBP-C construct C6–C8 (human). As to the kind of experiment: co-IP; HEK293 cells co-expressing cMyc-tagged BT (RyR) constructs with HA-tagged cMyBP-C constructs; HA–cMyBP-C immunoprecipitated with Ab^HA from solubilised cell lysates, co-precipitated BT detected by western blotting with Ab^cMyc; non-immune rabbit IgG as negative control; densitometry. For orientation: A western blot detects proteins with antibodies after separation by electrophoresis.

Sequence of HA-tagged cMyBP-C construct C6–C8 (human) (Q14896 whole entry): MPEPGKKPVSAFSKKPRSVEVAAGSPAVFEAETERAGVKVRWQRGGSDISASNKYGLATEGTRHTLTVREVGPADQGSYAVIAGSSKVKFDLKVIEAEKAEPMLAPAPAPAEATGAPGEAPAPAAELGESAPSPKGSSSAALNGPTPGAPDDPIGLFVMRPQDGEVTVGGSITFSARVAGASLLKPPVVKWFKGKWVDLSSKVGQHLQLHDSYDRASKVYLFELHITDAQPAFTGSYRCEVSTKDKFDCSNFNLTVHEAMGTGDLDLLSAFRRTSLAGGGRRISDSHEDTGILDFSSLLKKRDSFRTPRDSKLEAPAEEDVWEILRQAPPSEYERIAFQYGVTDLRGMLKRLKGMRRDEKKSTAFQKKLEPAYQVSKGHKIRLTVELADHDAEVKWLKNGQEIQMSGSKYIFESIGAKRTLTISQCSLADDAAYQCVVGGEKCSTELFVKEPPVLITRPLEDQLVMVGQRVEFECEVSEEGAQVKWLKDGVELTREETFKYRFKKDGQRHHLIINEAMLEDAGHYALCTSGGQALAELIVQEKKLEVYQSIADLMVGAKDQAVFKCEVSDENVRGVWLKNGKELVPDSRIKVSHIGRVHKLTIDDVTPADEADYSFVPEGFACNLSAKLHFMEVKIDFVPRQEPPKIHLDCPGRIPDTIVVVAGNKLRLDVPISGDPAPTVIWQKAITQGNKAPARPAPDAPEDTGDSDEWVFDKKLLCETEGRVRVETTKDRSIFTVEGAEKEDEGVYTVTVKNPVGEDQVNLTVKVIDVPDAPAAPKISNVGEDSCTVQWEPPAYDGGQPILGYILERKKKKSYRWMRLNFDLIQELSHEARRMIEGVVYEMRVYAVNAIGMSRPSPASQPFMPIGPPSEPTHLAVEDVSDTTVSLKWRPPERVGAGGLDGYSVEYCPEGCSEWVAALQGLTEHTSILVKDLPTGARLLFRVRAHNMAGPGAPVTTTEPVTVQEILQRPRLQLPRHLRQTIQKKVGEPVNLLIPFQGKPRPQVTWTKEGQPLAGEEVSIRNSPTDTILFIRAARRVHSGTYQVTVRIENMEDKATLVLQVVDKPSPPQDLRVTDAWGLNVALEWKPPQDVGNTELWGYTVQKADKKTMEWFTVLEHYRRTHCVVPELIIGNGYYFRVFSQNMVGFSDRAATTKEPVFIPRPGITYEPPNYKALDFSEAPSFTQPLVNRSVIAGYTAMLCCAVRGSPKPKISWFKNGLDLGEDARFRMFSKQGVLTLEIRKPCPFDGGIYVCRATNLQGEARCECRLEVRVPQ

Substance “BT4L (cMyc-tagged RyR2 residues 1–906) (from UniProt Q92736 1-906) (domain or fragment)” showed a fold signal against C8–C10 of 3 fold.
